From US12042530B2, “Target peptides for immunotherapy and diagnostics” (University of Virginia Patent Foundation, priority 2012, dated 2024)
Non-standard residues stand in square brackets, D forms with d. No end group written: not given here. pT = C[C@@H](OP(=O)(O)O)[C@H](N)C(=O)O; pS = N[C@@H](COP(=O)(O)O)C(=O)O

How the values were obtained:
HLA-B*0702 = target: T1, HLA-B*0702 (Homo sapiens, UniProt P01889); assay: Phosphopeptides presented in association with class I molecules (HLA-B*0702) on cancer cells: melanoma and/or leukemia; parameters: key: Melanoma (M); Leukemia (L); L/M: Melanoma (M) and/or Leukemia (L); details: cancer type on which the HLA-B*0702 phosphopeptide is presented
T1 construct: endogenous in cells; host or cells: melanoma and/or leukemia cells

[1] = target: T2, HLA-B*0702 (HLA-B7) peptide complexes (Homo sapiens, UniProt P01889); assay: HLA-B*0702 phosphopeptides associated with leukemia samples (isolation of HLA-associated peptides); details: for Copies/cell class, ALL1: acute lymphoblastic leukemia sample ALL1; for Copies/cell class, B Cell: healthy B cells; for Copies/cell class, T Cell: healthy T cells; for Copies/cell class, HCL1: hairy cell leukemia sample HCL1
T2 construct: endogenous in cells; host or cells: JY B-lymphoblastoid line; primary ALL, CLL, HCL, AML samples; bone marrow; healthy B and T cells
Text: To identify naturally processed tumor-associated phosphopeptides, HLA-A*0201 (HLA-A2) and HLA-B*0702 (HLA-B7) peptide complexes from four (4) chronic lymphocytic leukemia (CLL) tumor samples, a mantle cell lymphoma sample (MCL), one acute lymphoblastic leukemia (ALL), and an acute myeloid leukemia (AML) sample, in addition to healthy splenic T and B-cells and the cultured lymphoblastoid cell line JY were isolated. These efforts yielded 10 HLA-A2-restricted and 86 HLA-B7-restricted phosphopeptide antigens (see Tables 6 and 7).
All cell lines were grown at 37° C. with 5% CO2 in growth medium consisting of RPMI 1640 supplemented with 10% FCS and two mM L-glutamine. Blood or leukapheresis samples were taken from patients with high-burden leukemia in heparin. Tumor cells were recovered by layering the blood over density gradient (Ficoll) and collecting the tumor layer following centrifugation. The tumor was washed in tris-buffered saline (TBS). The purity of the tumor was assessed using flow cytometry and was >98% pure in all cases. For healthy T and B-cell populations, a normal spleen sample processed and tonsil sample was collected and lymphocytes released through mechanical disruption. Mononuclear cells were isolated using a density gradient and 10^9 T cells isolated using anti-CD19 or anti-CD3 microbeads (Miltenyi Biotec Inc., Auburn, California, United States of America) with purity >98% were obtained. Bone marrow sample was obtained from an elective orthopedic procedure and red cell-depleted using hypotonic lysis. This sample was not processed further.
Class I MHC molecules were immunoaffinity purified from the JY cell line or from primary tumor samples, and their associated peptides were extracted as previously described in Zarling et al., 2006. Approximately 1.2-14×10^9 cells were lysed in a solution containing 20 mM Tris-HCl (pH 8.0), 150 mM NaCl, 1% CHAPS, one mM PMSF, five μg/mL aprotinin, 10 μg/mL leupeptin, 10 μg/mL pepstatin A, 1 μg/ml calyculin A, and phosphatase inhibitor (cocktails I and II; Sigma-Aldrich). The mixture was subjected to centrifugation and the resulting supernatant was passed over protein A sepharose pre-loaded with the HLA-A2-specific antibody BB7.2 or HLA-B7-specific antibody MEL Peptides were eluted from the purified class I MHC molecules with 10% acetic acid.

Row | Substance | L/M (HLA-B*0702) | Copies/cell class, AML1 [1] | Copies/cell class, ALL1 [1] | Copies/cell class, B Cell [1] | Copies/cell class, T Cell [1] | Copies/cell class, CLL2 [1] | Copies/cell class, JY [1] | Copies/cell class, HCL1 [1] | Copies/cell class, CLL4 [1] | Copies/cell class, BM ([1]; healthy bone marrow)
1 | 270 (EPR[pS]PSHSM; listed as Homo sapiens) [compound 270] | L | 1 (1 indicates <1 copy/cell) |  |  |  |  |  |  |  | 
2 | 272 (FRR[pS]PTKSSL; listed as Homo sapiens) [compound 272] | L | 2 (2 indicates 1-5 copies/cell) |  |  |  |  |  |  |  | 
3 | 273 (FRR[pS]PTKSSLDY; listed as Homo sapiens) [compound 273] | L | 4 (4 indicates >25 copies per cell) |  |  |  |  |  |  |  | 
4 | 274 (FSI[pS]PVRL; listed as Homo sapiens) [compound 274] | L |  | 4 (4 indicates >25 copies per cell) | 2 (2 indicates 1-5 copies/cell) | 2 (2 indicates 1-5 copies/cell) |  |  |  |  | 
5 | 277 (GPRSASLL[pS]L; listed as Homo sapiens) [compound 277] | M | 4 (4 indicates >25 copies per cell) |  |  |  |  |  |  |  | 
6 | 283 (KPA[pS]PKFIVTL; listed as Homo sapiens) [compound 283] | L | 2 (2 indicates 1-5 copies/cell) |  |  |  |  |  |  |  | 
7 | 284 (KPPH[pS]PLVL; listed as Homo sapiens) [compound 284] | L |  | 4 (4 indicates >25 copies per cell) |  | 2 (2 indicates 1-5 copies/cell) |  |  |  |  | 
8 | 285 (KPP[pS]PEHQSL; listed as Homo sapiens) [compound 285] | L |  | 1 (1 indicates <1 copy/cell) |  |  |  |  |  |  | 
9 | 287 (KPP[pT]PGASF; listed as Homo sapiens) [compound 287] | L |  | 3 (3 indicates 6-25 copies per cell) | 1 (1 indicates <1 copy/cell) | 2 (2 indicates 1-5 copies/cell) |  |  |  |  | 
10 | 289 (KPQTRGK[pT]F; listed as Homo sapiens) [compound 289] | L |  | 1 (1 indicates <1 copy/cell) |  |  |  |  | 1 (1 indicates <1 copy/cell) |  | 
11 | 295 (KPR[pS]PVVEL; listed as Homo sapiens) [compound 295] | L/M | 4 (4 indicates >25 copies per cell) | 2 (2 indicates 1-5 copies/cell) |  |  | 4 (4 indicates >25 copies per cell) | 4 (4 indicates >25 copies per cell) | 4 (4 indicates >25 copies per cell) | 4 (4 indicates >25 copies per cell) | 
12 | 297 (LPA[pS]PRARL; listed as Homo sapiens) [compound 297] | L | 1 (1 indicates <1 copy/cell) |  |  |  |  |  |  |  | 
13 | 305 (RAP[pS]PSSRM; listed as Homo sapiens) [compound 305] | L |  | 4 (4 indicates >25 copies per cell) | 1 (1 indicates <1 copy/cell) |  |  |  |  |  | 
14 | 306 (RPAK[pS]MDSL; listed as Homo sapiens) [compound 306] | L |  | 2 (2 indicates 1-5 copies/cell) | 2 (2 indicates 1-5 copies/cell) | 3 (3 indicates 6-25 copies per cell) | 2 (2 indicates 1-5 copies/cell) | 4 (4 indicates >25 copies per cell) | 1 (1 indicates <1 copy/cell) |  | 
15 | 307 (RPA[pS]AGAML; listed as Homo sapiens) [compound 307] | L | 1 (1 indicates <1 copy/cell) | 4 (4 indicates >25 copies per cell) | 1 (1 indicates <1 copy/cell) | 3 (3 indicates 6-25 copies per cell) | 2 (2 indicates 1-5 copies/cell) | 4 (4 indicates >25 copies per cell) | 2 (2 indicates 1-5 copies/cell) |  | 1 (1 indicates <1 copy/cell)
16 | 309 (RPA[pS]PAAKL; listed as Homo sapiens) [compound 309] | M | 1 (1 indicates <1 copy/cell) | 2 (2 indicates 1-5 copies/cell) | 1 (1 indicates <1 copy/cell) | 1 (1 indicates <1 copy/cell) | 2 (2 indicates 1-5 copies/cell) | 4 (4 indicates >25 copies per cell) | 1 (1 indicates <1 copy/cell) | 1 (1 indicates <1 copy/cell) | 
17 | 312 (RPD[pS]RLGKTEL; listed as Homo sapiens) [compound 312] | L | 2 (2 indicates 1-5 copies/cell) | 2 (2 indicates 1-5 copies/cell) |  |  | 1 (1 indicates <1 copy/cell) | 4 (4 indicates >25 copies per cell) | 1 (1 indicates <1 copy/cell) |  | 
18 | 375 (SPRR[pS]RSI[pS]L; listed as Homo sapiens) [compound 375] | L/M |  |  |  |  |  |  |  |  | 
19 | 380 (SPRTPV[pS]PVKF; listed as Homo sapiens) [compound 380] | M |  |  |  |  |  |  |  |  | 
20 | 381 (SPR[pT]PV[pS]PVKF; listed as Homo sapiens) [compound 381] | M |  |  |  |  |  |  |  |  | 
21 | 390 (YPS[pS]PRKL; listed as Homo sapiens) [compound 390] | M |  |  |  |  |  |  |  |  | 

The next lines start with the values.

Row | L/M (HLA-B*0702) | Copies/cell class, AML1 [1] | Copies/cell class, ALL1 [1] | Copies/cell class, B Cell [1] | Copies/cell class, T Cell [1] | Copies/cell class, CLL2 [1] | Copies/cell class, JY [1] | Copies/cell class, HCL1 [1] | Copies/cell class, CLL4 [1] | Copies/cell class, BM ([1]; healthy bone marrow) | Substance
22 | L/M | 1 (1 indicates <1 copy/cell) |  |  |  |  |  |  |  |  | 267 (APRRY[pS]SSL; listed as Homo sapiens) [compound 267]
23 | L | 1 (1 indicates <1 copy/cell) |  |  |  |  |  |  |  |  | 269 (EPKRR[pS]ARL; listed as Homo sapiens) [compound 269]
24 | M | 3 (3 indicates 6-25 copies per cell) |  |  |  |  |  |  |  |  | 278 (GPR[pS]ASLLSL; not fully specified; listed as Homo sapiens) [compound 278]
25 | L |  | 1 (1 indicates <1 copy/cell) |  |  | 1 (1 indicates <1 copy/cell) | 1 (1 indicates <1 copy/cell) | 1 (1 indicates <1 copy/cell) |  |  | 282 (KPA[pS]PARRL; listed as Homo sapiens) [compound 282]
26 | L | 1 (1 indicates <1 copy/cell) | 2 (2 indicates 1-5 copies/cell) |  |  | 1 (1 indicates <1 copy/cell) | 2 (2 indicates 1-5 copies/cell) | 2 (2 indicates 1-5 copies/cell) |  |  | 288 (KPPYRSH[pS]L; listed as Homo sapiens) [compound 288]
27 | L |  | 1 (1 indicates <1 copy/cell) |  |  | 1 (1 indicates <1 copy/cell) |  | 1 (1 indicates <1 copy/cell) | 1 (1 indicates <1 copy/cell) |  | 291 (KPR[pS]PDHVL; listed as Homo sapiens) [compound 291]
28 | L |  | 2 (2 indicates 1-5 copies/cell) | 2 (2 indicates 1-5 copies/cell) | 3 (3 indicates 6-25 copies per cell) | 1 (1 indicates <1 copy/cell) | 4 (4 indicates >25 copies per cell) | 2 (2 indicates 1-5 copies/cell) |  |  | 296 (KPY[pS]PLASL; listed as Homo sapiens) [compound 296]
29 | L | 3 (3 indicates 6-25 copies per cell) |  |  |  |  |  |  |  |  | 302 (QPR[pS]PGPDYSL; listed as Homo sapiens) [compound 302]
30 | L/M | 2 (2 indicates 1-5 copies/cell) | 1 (1 indicates <1 copy/cell) |  |  | 3 (3 indicates 6-25 copies per cell) | 4 (4 indicates >25 copies per cell) | 2 (2 indicates 1-5 copies/cell) | 2 (2 indicates 1-5 copies/cell) |  | 308 (RPA[pS]ARAQPGL; listed as Homo sapiens) [compound 308]
31 | L |  | 1 (1 indicates <1 copy/cell) |  |  |  |  |  |  |  | 310 (RPA[pT]GGPGVA; listed as Homo sapiens) [compound 310]
32 | M |  |  |  |  |  |  |  |  |  | 384 (SPVVHQ[pS]L; listed as Homo sapiens) [compound 384]
